US20240034757A1 (OXFORD UNIVERSITY INNOVATION, published 2024)

B2: P1172_IXORI (other)
chain: LHEDEIFTVDYCGTNCTKQSNGSWTTCPGNCSCYHEDGKTDGFCLSTEYTDFTQFPNLTSEEMDAATPRPE

What was measured:
P1174_IXORI = target: T1, P1174_IXORI (Ixodes ricinus, UniProt V5I3C5 28-104); assay: BLI [Cont.]
T1 sequence: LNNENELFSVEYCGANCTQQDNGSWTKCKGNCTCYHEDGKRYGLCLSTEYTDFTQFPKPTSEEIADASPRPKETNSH

P1095_IXORI = target: T2, P1095_IXORI (Ixodes ricinus, UniProt A0A0K8RCE3 24-112); assay: BLI [Cont.]
T2 sequence: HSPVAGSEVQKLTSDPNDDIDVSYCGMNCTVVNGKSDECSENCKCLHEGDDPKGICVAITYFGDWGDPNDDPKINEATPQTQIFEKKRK

P1127_IXORI = target: T3, P1127_IXORI (Ixodes ricinus, UniProt A0A0K8RJ67 29-108); assay: BLI [Cont.]
T3 sequence: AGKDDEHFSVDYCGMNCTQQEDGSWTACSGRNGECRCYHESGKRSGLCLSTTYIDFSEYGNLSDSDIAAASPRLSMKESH

P1168_IXORI = target: T4, P1168_IXORI (Ixodes ricinus, UniProt A0A0K8RCU3 25-106); assay: BLI [Cont.]
T4 sequence: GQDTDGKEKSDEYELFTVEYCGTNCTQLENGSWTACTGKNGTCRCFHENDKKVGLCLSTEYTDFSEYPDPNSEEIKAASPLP

P1170_IXORI = target: T5, P1170_IXORI (Ixodes ricinus, UniProt A0A0K8RD51 29-102); assay: BLI [Cont.]
T5 sequence: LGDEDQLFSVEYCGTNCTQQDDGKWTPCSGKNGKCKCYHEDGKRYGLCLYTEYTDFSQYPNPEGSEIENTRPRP

P1172_IXORI = target: B2; assay: BLI [Cont.]
P1080_IXORI = P1080_IXORI (Ixodes ricinus, UniProt A0A090XBL6 20-118); assay: BLI [Cont.]
P1128_IXORI = target: T6, P1128_IXORI (Ixodes ricinus, UniProt A0A0K8R6B3 19-90); assay: BLI [Cont.]
T6 sequence: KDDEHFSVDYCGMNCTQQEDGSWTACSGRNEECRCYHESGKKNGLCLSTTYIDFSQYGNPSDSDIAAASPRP

P1166_IXORI = target: T7, P1166_IXORI (Ixodes ricinus, UniProt A0A0K8RE99 25-110); assay: BLI [Cont.]
T7 sequence: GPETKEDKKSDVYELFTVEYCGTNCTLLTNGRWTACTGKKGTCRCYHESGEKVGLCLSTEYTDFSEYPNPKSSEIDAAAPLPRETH

P1134_IXORI = target: T8, P1134_IXORI (Ixodes ricinus, UniProt A0A0K8RAI0 32-135); assay: BLI [Cont.]
T8 sequence: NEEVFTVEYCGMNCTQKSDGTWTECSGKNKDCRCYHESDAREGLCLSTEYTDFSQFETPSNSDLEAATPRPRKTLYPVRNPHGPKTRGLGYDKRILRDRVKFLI

P1096_IXORI = target: T9, P1096_IXORI (Ixodes ricinus, UniProt A0A0K8RKE4 24-114); assay: BLI [Cont.]
T9 sequence: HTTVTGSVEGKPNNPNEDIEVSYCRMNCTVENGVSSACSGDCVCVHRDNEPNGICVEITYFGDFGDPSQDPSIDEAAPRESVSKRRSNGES

P1162_IXORI = target: T10, P1162_IXORI (Ixodes ricinus, UniProt A0A0K8RDJ1 29-99); assay: BLI [Cont.]
T10 sequence: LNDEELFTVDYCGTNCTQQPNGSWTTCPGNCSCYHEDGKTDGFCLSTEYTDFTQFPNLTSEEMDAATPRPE

P1142_AMBCA = target: T11, P1142_AMBCA (Amblyomma cajennense, UniProt A0A023FBW4 26-97); assay: BLI [Cont.]
T11 sequence: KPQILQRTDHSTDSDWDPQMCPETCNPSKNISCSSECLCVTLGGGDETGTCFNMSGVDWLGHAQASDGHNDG

P1229_IXORI = target: T12, P1229_IXORI (Ixodes ricinus, UniProt A0A0K8R4R9 32-108); assay: BLI [Cont.]
T12 sequence: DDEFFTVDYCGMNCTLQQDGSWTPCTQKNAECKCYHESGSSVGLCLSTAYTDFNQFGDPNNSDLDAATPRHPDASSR

P1132_IXORI = target: T13, P1132_IXORI (Ixodes ricinus, UniProt V5GZ08 29-106); assay: BLI [Cont.]
T13 sequence: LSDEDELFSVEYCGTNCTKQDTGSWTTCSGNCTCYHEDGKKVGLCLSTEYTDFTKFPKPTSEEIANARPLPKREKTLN

P1156_IXORI = target: T14, P1156_IXORI (Ixodes ricinus, UniProt V5HBW0 29-108); assay: BLI [Cont.) C]
T14 sequence: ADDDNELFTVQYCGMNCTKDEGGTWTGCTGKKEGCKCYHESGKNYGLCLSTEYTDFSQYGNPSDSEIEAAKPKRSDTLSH

CXCL6_HUMAN = target: T15, CXCL6_HUMAN (human, UniProt P80162 38-114); assay: BLI [Cont.]
T15 sequence: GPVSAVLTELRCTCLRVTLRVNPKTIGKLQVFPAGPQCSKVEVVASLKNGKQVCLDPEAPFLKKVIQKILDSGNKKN

CXCL2_HUMAN = target: T16, CXCL2_HUMAN (human, UniProt P19875 35-107); assay: BLI [Cont.]
T16 sequence: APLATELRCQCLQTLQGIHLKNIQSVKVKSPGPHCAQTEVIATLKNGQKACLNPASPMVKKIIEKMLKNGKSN

CXCL3_HUMAN = target: T17, CXCL3_HUMAN (human, UniProt P19876 35-107); assay: BLI [Cont.]
T17 sequence: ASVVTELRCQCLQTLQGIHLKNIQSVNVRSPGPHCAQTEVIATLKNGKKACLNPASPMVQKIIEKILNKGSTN

CXCL13_HUMAN = target: T18, CXCL13_HUMAN (human, UniProt O43927 23-109); assay: BLI
T18 sequence: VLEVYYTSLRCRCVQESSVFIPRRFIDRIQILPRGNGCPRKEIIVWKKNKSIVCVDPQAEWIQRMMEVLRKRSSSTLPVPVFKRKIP

CXCL12_HUMAN = CXCL12_HUMAN (human, UniProt P48061 22-89); assay: BLI
CXCL14_HUMAN = target: T19, CXCL14_HUMAN (human, UniProt O95715 35-111); assay: BLI
T19 sequence: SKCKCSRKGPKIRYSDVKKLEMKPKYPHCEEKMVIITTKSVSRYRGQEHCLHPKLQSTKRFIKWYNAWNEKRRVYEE

CXCL9_HUMAN = target: T20, CXCL9_HUMAN (human, UniProt Q07325 23-125); assay: BLI
T20 sequence: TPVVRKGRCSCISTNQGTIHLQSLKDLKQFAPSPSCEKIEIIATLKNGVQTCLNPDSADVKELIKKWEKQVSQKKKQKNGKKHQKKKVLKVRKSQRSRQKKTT

CXCL11_HUMAN = target: T21, CXCL11_HUMAN (human, UniProt O14625 22-94); assay: BLI
T21 sequence: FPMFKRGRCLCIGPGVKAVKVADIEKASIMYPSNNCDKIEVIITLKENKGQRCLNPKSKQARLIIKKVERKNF

CXCL10_HUMAN = target: T22, CXCL10_HUMAN (human, UniProt P02778 22-98); assay: BLI
T22 sequence: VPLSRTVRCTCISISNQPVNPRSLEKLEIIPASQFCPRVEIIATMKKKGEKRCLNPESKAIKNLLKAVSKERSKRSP

CXCL8_HUMAN = target: T23, CXCL8_HUMAN (human, UniProt P10145 28-99); assay: yeast surface display FACS re-test; further: test concentration or dose not given here
T23 sequence: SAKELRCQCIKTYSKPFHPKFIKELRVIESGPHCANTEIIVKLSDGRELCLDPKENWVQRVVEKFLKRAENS

CXCL1_HUMAN = target: T24, CXCL1_HUMAN (human, UniProt P09341 35-107); assay: yeast surface display FACS re-test; further: test concentration or dose not given here
T24 sequence: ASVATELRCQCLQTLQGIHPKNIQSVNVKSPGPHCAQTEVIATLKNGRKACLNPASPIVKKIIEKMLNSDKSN

Chain of CXCL12_HUMAN (P48061 22-89 limits assumed): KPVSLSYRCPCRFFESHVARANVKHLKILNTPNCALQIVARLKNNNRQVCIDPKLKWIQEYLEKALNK
Chain of P1080_IXORI (A0A090XBL6 20-118): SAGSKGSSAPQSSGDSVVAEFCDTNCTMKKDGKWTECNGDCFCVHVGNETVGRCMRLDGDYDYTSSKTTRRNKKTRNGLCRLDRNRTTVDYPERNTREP

B1: CXCL4_HUMAN (ligand)
chain: EAEEDGDLQCLCVKTTSQVRPRHITSLEVIKAGPHCPTAQLIATLKNGRKICLDLQAPLYKKIIKKLLES
Q: What does the source list for B1?
A: binding result (P1174_IXORI): no binding (tested: 300 nM); binding result (P1095_IXORI): no binding (tested: 300 nM); binding result (P1127_IXORI): no binding (tested: 300 nM); binding result (P1168_IXORI): no binding (tested: 300 nM); binding result (P1170_IXORI): no binding (tested: 300 nM); binding result (P1172_IXORI): no binding (tested: 300 nM); Kd (P1080_IXORI): 2.31 µM; binding result (P1128_IXORI): no binding (tested: 300 nM); binding result (P1166_IXORI): no binding (tested: 300 nM); binding result (P1134_IXORI): no binding (tested: 300 nM); binding result (P1096_IXORI): no binding (tested: 300 nM); binding result (P1162_IXORI): no binding (tested: 300 nM); Kd (P1142_AMBCA): 0.381 µM; binding result (P1229_IXORI): no binding (tested: 300 nM); binding result (P1132_IXORI): no binding (tested: 300 nM); binding result (P1156_IXORI): no binding (tested: 300 nM)

Q: What does the source list for B2?
A: binding result (CXCL6_HUMAN): no binding (tested: 300 nM); Kd (CXCL2_HUMAN): 0.026 µM; binding result (CXCL3_HUMAN): no binding (tested: 300 nM); binding result (CXCL13_HUMAN): no binding (tested: 300 nM); binding result (CXCL12_HUMAN): no binding (tested: 300 nM); binding result (CXCL14_HUMAN): no binding (tested: 300 nM); binding result (CXCL9_HUMAN): no binding (tested: 300 nM); binding result (CXCL11_HUMAN): no binding (tested: 300 nM); binding result (CXCL10_HUMAN): no binding (tested: 300 nM); % cells over threshold fluorescence (CXCL8_HUMAN): 41%; % cells over threshold fluorescence (CXCL1_HUMAN): 65%
